Reference: article PMC10567788, “Asymmetric gating of a human hetero-pentameric glycine receptor” (Nature Communications, 2023)

What was measured:
[1] = molecular target: human glycine receptor β subunit, cryo-EM construct βem (human); test: cryo-EM structure; α1emβem GlyR co-expressed and co-purified through the PA tag on βem; single-particle cryo-EM in 0.06% digitonin, 20 mM Tris pH 8.0, 200 mM NaCl; apo and with 2 mM glycine (states apo, gly-1 open, gly-2 expanded open, gly-3 desensitized)
[2] = molecular target: the molecule itself; test: as above

Sequence of human glycine receptor β subunit, cryo-EM construct βem (human) (P48167 whole entry): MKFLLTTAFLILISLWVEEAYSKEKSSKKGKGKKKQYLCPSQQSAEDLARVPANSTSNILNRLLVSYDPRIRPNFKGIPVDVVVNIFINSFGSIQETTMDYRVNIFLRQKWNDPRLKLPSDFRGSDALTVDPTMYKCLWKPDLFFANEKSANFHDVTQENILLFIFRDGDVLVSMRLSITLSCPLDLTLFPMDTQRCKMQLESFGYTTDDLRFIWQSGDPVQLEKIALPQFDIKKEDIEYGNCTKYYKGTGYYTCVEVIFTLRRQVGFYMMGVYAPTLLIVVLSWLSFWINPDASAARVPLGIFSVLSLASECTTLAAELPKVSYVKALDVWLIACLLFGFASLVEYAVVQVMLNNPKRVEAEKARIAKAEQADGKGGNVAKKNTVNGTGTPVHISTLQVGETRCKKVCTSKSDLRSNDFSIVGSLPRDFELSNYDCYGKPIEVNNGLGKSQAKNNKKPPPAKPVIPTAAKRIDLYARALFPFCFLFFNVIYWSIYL

B1: human glycine receptor α1 subunit, cryo-EM construct α1em (receptor)
chain: ARSAPKPMSPSDFLDKLMGRTSGYDARIRPNFKGPPVNVSCNIFINSFGSIAETTMDYRVNIFLRQQWNDPRLAYNEYPDDSLDLDPSMLDSIWKPDLFFANEKGAHFHEITTDNKLLRISRNGNVLYSIRITLTLACPMDLKNFPMDVQTCIMQLESFGYTMNDLIFEWQEQGAVQVADGLTLPQFILKEEKDLRYCTKHYNTGKFTCIEARFHLERQMGYYLIQMYIPSLLIVILSWISFWINMDAAPARVGLGITTVLTMTTQSSGSRASLPKVSYVKAIDIWMAVCLLFVFSALLEYAAVNFVSRQHKELLGSSGEEMRKLFIQRAKKIDKISRIGFPMAFLIFNMFYWIIYKIVRREDVHNQ
notes: human glycine receptor α1, NCBI NP_001139512.1, the part before the M3/M4 loop (residues up to L315); linker that replaces the M3/M4 loop residues R316-P381; human glycine receptor α1, NCBI NP_001139512.1, the part after the replaced M3/M4 loop (E382 to the C-terminal Q429); Four copies stand in each α1emβem pentamer; also called GlyR α1; α subunit; source: HEK293S GnTI- cells, BacMam baculovirus …
stoichiometry N (α1 subunits per β subunit) [1]: 4
binding result [2]: binds
